These results are taken from patent US20190352367A1 (CLEVELAND CLINIC FOUNDATION, published 2019).

Experiment [1] addresses T1, Nanog transcription factor (NANOG), SPR ligand (UniProt Q9H9S0 1-305, limits assumed).
T1 construct: the NANOG preparation is not described
The experiment in a line: SPR, peptide as analyte, NANOG as ligand.

Experiment [2] deals with T2, Focal Adhesion Kinase (FAK), SPR ligand (UniProt Q05397 1-1052, limits assumed).
T2 construct: the FAK preparation is not described
The experiment in a line: SPR, peptide as analyte, FAK as ligand.

Experiment [3] deals with Connexin 26 (Cx26), endogenous or overexpressed in breast cell lysates (UniProt P29033 1-226). The experiment in a line: reciprocal co-immunoprecipitation (anti-Cx26, anti-FAK) from bulk MCF7 and MCF10A lysates, western blot; non-immune IgG as control.

T1 sequence (Q9H9S0 whole entry): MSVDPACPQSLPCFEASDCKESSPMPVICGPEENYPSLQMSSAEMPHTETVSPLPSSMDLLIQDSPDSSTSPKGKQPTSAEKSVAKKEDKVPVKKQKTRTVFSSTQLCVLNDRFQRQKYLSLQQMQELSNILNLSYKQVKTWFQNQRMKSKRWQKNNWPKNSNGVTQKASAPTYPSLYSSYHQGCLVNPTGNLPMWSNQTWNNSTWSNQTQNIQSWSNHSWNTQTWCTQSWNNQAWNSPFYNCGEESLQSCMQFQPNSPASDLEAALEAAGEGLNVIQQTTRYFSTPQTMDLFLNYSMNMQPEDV

For orientation: Kd means the free concentration of one partner at which half of the binding sites on the other are occupied at equilibrium, for simple one-to-one binding. Regarding RYCSGKSKKPV (also called cytoplasmic tail of Cx26) [Cx26 blocking peptide 5 (C-terminus)], the figures for the Kd in experiment [1] and in experiment [2] were 0.17 µM and 14.9 µM, respectively.

B1: Focal adhesion kinase (FAK), endogenous in breast cell lysates (enzyme)
chain: AAAYLDPNLNHTPNSSTKTHLGTGMERSPGAMERVLKVFHYFESNSEPTTWASIIRHGDATDVRGIIQKIVDSHKVKHVACYGFRLSHLRSEEVHWLHVDMGVSSVREKYELAHPPEEWKYELRIRYLPKGFLNQFTEDKPTLNFFYQQVKSDYMLEIADQVDQEIALKLGCLEIRRSYWEMRGNALEKKSNYEVLEKDVGLKRFFPKSLLDSVKAKTLRKLIQQTFRQFANLNREESILKFFEILSPVYRFDKECFKCALGSSWIISVELAIGPEEGISYLTDKGCNPTHLADFTQVQTIQYSNSEDKDRKGMLQLKIAGAPEPLTVTAPSLTIAENMADLIDGYCRLVNGTSQSFIIRPQKEGERALPSIPKLANSEKQGMRTHAVSVSETDDYAEIIDEEDTYTMPSTRDYEIQRERIELGRCIGEGQFGDVHQGIYMSPENPALAVAIKTCKNCTSDSVREKFLQEALTMRQFDHPHIVKLIGVITENPVWIIMELCTLGELRSFLQVRKYSLDLASLILYAYQLSTALAYLESKRFVHRDIAARNVLVSSNDCVKLGDFGLSRYMEDSTYYKASKGKLPIKWMAPESINFRRFTSASDVWMFGVCMWEILMHGVKPFQGVKNNDVIGRIENGERLPMPPNCPPTLYSLMTKCWAYDPSRRPRFTELKAQLSTILEEEKAQQEERMRMESRRQATVSWDSGGSDEAPPKPSRPGYPSPRSSEGFYPSPQHMVQTNHYQVSGYPGSHGITAMAGSIYPGQASLLDQTDSWNHRPQEIAMWQPNVEDSTVLDLRGIGQVLPTHLMEERLIRQQQEMEEDQRWLEKEERFLKPDVRLSRGSIDREDGSLQGPIGNQHIYQPVGKPDPAAPPKKPPRPGAPGHLGSLASLSSPADSYNEGVKLQPQEISPPPTANLDRSNDKVYENVTGLVKAVIEMSSKIQPAPPEEYVPMVKEVGLALRTLLATVDETIPLLPASTHREIEMAQKLLNSDLGELINKMKLAQQYVMTSLQQEYKKQMLTAAHALAVDAKNLLDVIDQARLKMLGQTRPH
notes: Protein from cell lysates in co-immunoprecipitation; also called total FAK
Consider B1, for which the binding result in experiment [3] is on record as “binds”.
